The target of experiment [1] is T1, ICD4 (region consisting of amino acids at positions 196 to 299 of MCT5) (human).
T1 construct: Immunogen and ELISA coating antigen
T1 chain: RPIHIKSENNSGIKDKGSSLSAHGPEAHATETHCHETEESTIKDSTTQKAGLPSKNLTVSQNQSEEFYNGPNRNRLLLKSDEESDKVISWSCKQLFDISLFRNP
Briefly: ELISA, hybridoma culture supernatant on immobilized ICD4, POD-labeled anti-mouse immunoglobulin. The procedure: Blood samples which had been collected from mice through their tail veins and diluted 1/160,000 with PBS(-), or alternatively, culture supernatants collected from wells in which hybridomas were growing were analyzed for their antibody titer. ICD4 was diluted with PBS(-) and dispensed into 96-well ELISA plates (Nunc) in an amount of 50 ng per well, and immobilized onto the plate surface by being allowed to stand at room temperature for 1 hour. Then, after the plates were washed three times with 350 μL of TBS-T (25 mM Tris, 150 mM NaCl, 0.05% (v/v) Tween 20, pH 7.4), PBS-T containing 5% skimmed milk was dispensed in a volume of 300 μL per well to conduct blocking for 1 hour at room temperature. After washing with TBS-T, the diluted blood samples or the culture supernatants were dispensed into the ICD4-immobilized ELISA plates and reacted for 1 hour at room temperature. After washing with TBS-T, a 10,000-fold dilution of peroxidase (hereinafter abbreviated as POD)-labeled anti-mouse immunoglobulin antibody (BETHYL) was dispensed in a volume of 100 μL per well and reacted for 1 hour at room temperature. […] After the reaction was stopped with 1.5 N sulfuric acid, the plates were measured for absorbance at 490 nm with a plate reader (Molecular Devices). […]
(An ELISA detects its analyte on a solid surface through an enzyme-linked reagent.)

Experiment [2] addresses T2, MCT5 (Monocarboxylate transporter 5) (human, UniProt O15374 1-487).
T2 construct: Membrane transporter on intact human cancer cells: MCF7-MCT5 (overexpressing), and MDA-MB231, HCT116 and SK-BR3 (endogenous); also called native MCT5; MCT5 isoform 1
In words: flow cytometry on intact HCT116 cells, Alexa 488-labeled secondary antibody; negative control is cells without IMI4C4a. The protocol: HCT116 cells (which are human colorectal cancer cells) were cultured to reach 90% confluency. After being washed twice with PBS(-), the cells were collected with Accutase (Life Technologies) and suspended at 4×10⁵ cells in […] of PBS(-) containing 1% FBS. To this suspension, the antibody IMI4C4a was added at a final concentration of […] and reacted on ice for 60 minutes. For use as a control, a cell suspension free from the antibody IMI4C4a was prepared.
In general terms: Flow cytometry measures light scatter and fluorescence of single cells or particles in a stream.

T2 sequence (O15374 whole entry, canonical isoform): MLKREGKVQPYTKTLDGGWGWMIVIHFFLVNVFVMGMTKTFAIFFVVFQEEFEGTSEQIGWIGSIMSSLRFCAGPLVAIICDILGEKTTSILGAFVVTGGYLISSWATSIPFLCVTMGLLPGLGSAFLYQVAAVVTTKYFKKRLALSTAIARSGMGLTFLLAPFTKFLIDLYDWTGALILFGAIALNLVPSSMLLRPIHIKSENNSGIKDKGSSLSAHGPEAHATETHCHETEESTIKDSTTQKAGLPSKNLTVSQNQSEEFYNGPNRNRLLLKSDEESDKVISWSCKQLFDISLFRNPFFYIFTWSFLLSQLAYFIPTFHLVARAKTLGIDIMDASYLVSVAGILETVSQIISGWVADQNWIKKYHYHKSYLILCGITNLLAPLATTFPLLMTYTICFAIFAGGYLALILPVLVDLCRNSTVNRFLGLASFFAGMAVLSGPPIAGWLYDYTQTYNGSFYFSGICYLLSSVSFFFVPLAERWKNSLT

B1: anti-MCT5 monoclonal antibody of clone No. IMI4C4a (antibody, V domains shown)
VH: EVQLQQSGAELVRPGALVKLSCKASGFNIKDYYMFWVKQRPEQGLEWIGWIDPENGNTIFDPKFQGKASITADTSSNTAYLQLSSLTSEDTAVYYCARMITTYYYAMDFWGQGTSVTVSS
VL: QLVLTQSSSASFSLGASAKLTCTLSSQHSTYTIEWYQQQPLKPPKYVMELKKDGSHSTGDGIPDRFSGSSSGADRYLSVSSIQPEDEAIYICGVGYTIKEQFVYVFGGGTK
notes: Mouse monoclonal antibody from a hybridoma, detected with anti-mouse IgG; also called antibody IMI4C4a; Mouse-Mouse hybridoma IMI4C4a
Consider B1, for which the binding result in experiment [1] and in experiment [2] was “binds” throughout.
